Source: US20030166037

T1: FasL1 FRET peptide (Aedans)EKELAELRESTS(Dabcyl)K-amide
T1 sequence: KELAELRESTS

T2: FasL1 FRET peptide (Aedans)…(Dabcyl)K-amide
T2 chain: KELAELRESTS

T3: Peptide D7 (Aedans)ERNITEGEARGSVIL(Dabcyl)K-amide (not fully specified)
T3 chain: ERNITEGEARGSVIL

T4: 29CD23 FRET peptide (Aedans)…(Dabcyl)K-amide
T4 chain: ADLSSFKSQEL

B1: truncated recombinant human Aggrecanase-1 (pro- and protease domains with C-terminal FLAG epitope) (protein)
chain: FASLSRFVETLVVADDKMAAFHGAGLKRYLLTVMAAAAKAFKHPSIRNPVSLVVTRLVILGSGEEGPQVGPSAAQTLRSFCAWQRGLNTPEDSDPDHFDTAILFTRQDLCGVSTCDTLGMADVGTVCDPARSCAIVEDDGLQSAFTAAHELGHVFNMLHDNSKPCISLNGPLSTSRHVMAPVMAHVDPEEPWSPCSARFITDFLDNGYGHCLLDKPEAPLHLPVTGDYKDDDDKG
B2: truncated recombinant human Aggrecanase-2 (pro- and protease domains with C-terminal FLAG epitope) (protein)
chain: SISRARQVELLLVADASMARLYGRGLQHYLLTLASIANRLYSHASIENHIRLAVVKVVVLGDKDKSLEVSKNAATTLKNFCKWQHQHNQLGDDHEEHYDAAILFTREDLCGHHSCDTLGMADVGTICSPERSCAVIEDDGLHAAFTVAHEIGHLLGLSHDDSKFCEETFGSTEDKRLMSSILTSIDASKPWSKCTSATITEFLDDGHGNCLLDLPRKQILGGDYKDDDDKG

How the values were obtained:
[1] = system: T1, FasL1 FRET peptide (Aedans)EKELAELRESTS(Dabcyl)K-amide
[2] = target: T2, FasL1 FRET peptide …
[3] = target: T3, Peptide D7 …
[4] = target: T4, 29CD23 FRET peptide …
[5] = target: T4, 29CD23 FRET peptide …; assay: FRET peptide cleavage kinetics, non-linear fit of rate against substrate concentration (the filing calls it analysis of affinities)
[6] = target: T2, FasL1 FRET peptide …; assay: as above

Molecule	FRET peptide cleavage in similar screening assays [1]	Relative proteolytic Activity [2]	FRET peptide cleavage activity [3]	also measured
MMP7 (Chemicon, Cat. #CC1059)	shown in similar screening assays to be a suitable substrate for the metalloproteases MMP7 and MMP 13			
MMP 13 (Chemicon, Cat. #CC068)	shown in similar screening assays to be a suitable substrate for the metalloproteases MMP7 and MMP 13			
B1		*	Neither Aggrecanase-1 nor Aggrecanase-2 showed any activity on this peptide	
B2		*****	Neither Aggrecanase-1 nor Aggrecanase-2 showed any activity on this peptide	Relative proteolytic Activity [4]: *****; Vm [4]: 0.6 rfu/min; Vm [2]: 2.8 rfu/min; Km [5]: 40 µM; Km [6]: 80 µM
